Results reported in patent US20060270596A1 (CENTRE NATIONAL DE LA RECHERCHE SCIENTIFIQUE CNRS, published 2006).

Assays:
[1] = target: T1, THAP1-N3 deletion mutant (amino acids 1-192) (human, UniProt Q9NVV9 1-192); experiment: in vivo interaction test: GFP-THAP1 mutant and myc-Par4DD co-expressed in primary human endothelial cells, confocal immunofluorescence
T1 construct: Gal4 fusion, in vitro translation product or GFP fusion according to assay
T1 sequence: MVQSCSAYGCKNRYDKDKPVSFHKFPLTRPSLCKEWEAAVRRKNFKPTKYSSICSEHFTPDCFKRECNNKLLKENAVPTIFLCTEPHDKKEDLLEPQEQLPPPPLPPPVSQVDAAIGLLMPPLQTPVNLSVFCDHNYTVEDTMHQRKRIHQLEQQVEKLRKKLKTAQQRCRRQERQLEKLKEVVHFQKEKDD
Text: (§1) To provide further evidence for a physiological interaction between THAP1 and Par4 in vivo interactions between THAP1 and PAR4 were investigated. For that purpose, confocal immunofluorescence microscopy was used to analyze the subcellular localization of epitope-tagged Par4DD in primary human endothelial cells transiently cotransfected with pEF-mycPar4DD eukaryotic expression vector and GFP or GFP-THAP1 expression vectors (pEGFP.C2 and pEGFP.C2-THAP1, respectively). To generate pEF-mycPar4DD, mycPar4DD (amino acids 250-342) was amplified by PCR using pGBKT7-Par4DD as template, with primers myc.BD7 (5′-[…]-3′) (SEQ ID NO: 195) and Par4.9 (5′-[…]-3′) (SEQ ID NO: 196), and cloned into the XbaI and NotI sites of the pEF-BOS expression vector (Mizushima and Nagata, Nucleic Acids Research, 18:5322, 1990). Primary human endothelial cells from umbilical vein (HUVEC, PromoCell, Heidelberg, Germany) were grown in complete ECGM medium (PromoCell, Heidelberg, Germany), plated on coverslips and transiently transfected in RPMI medium using GeneJammer transfection reagent according to manufacturer instructions (Stratagene, La Jolla, Calif., USA). Cells co-transfected with pEF-mycPar4DD and GFP-tagged expression constructs were allowed to grow for 24 h to 48 h on coverslips. Cells were washed twice with PBS, fixed for 15 min at room temperature in PBS containing 3.7% formaldehyde, and washed again with PBS prior to neutralization with 50 mM NH₄Cl in PBS for 5 min at room temperature. Following one more PBS wash, cells were permeabilized 5 min at room temperature in PBS containing 0.1% Triton-X100, and washed again with PBS. Permeabilized cells were then blocked with PBS-BSA (PBS with 1% bovine serum albumin) for 10′ and then incubated 2 hr at room temperature with mouse monoclonal antibody anti-myc epitope (mouse IgG1, 1/200, Clontech) diluted in PBS-BSA. Cells were then washed three times 5 min at room temperature in PBS-BSA, and incubated for 1 hr with Cy3 (red fluorescence)-conjugated goat anti-mouse (1/1000, Amersham Pharmacia Biotech) secondary antibodies, diluted in PBS-BSA. After extensive washing in PBS, samples were air dried and mounted in Mowiol. Images were collected on a Leica confocal laser scanning microscope.

[2] = target: T2, THAP1-C2 deletion mutant (amino acids 120-213) (human, UniProt Q9NVV9 120-213); experiment: as above
T2 construct: Gal4 fusion, in vitro translation product or GFP fusion according to assay
T2 sequence: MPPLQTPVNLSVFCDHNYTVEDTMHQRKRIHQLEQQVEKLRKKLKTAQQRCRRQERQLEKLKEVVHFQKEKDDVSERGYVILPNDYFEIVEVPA
Text: as §1

[3] = target: T3, THAP1-C1 deletion mutant (amino acids 90-213) (human, UniProt Q9NVV9 90-213); experiment: as above
T3 construct: Gal4 fusion, in vitro translation product or GFP fusion according to assay; also called THAP1-CL; THAP1ΔTHAP
T3 sequence: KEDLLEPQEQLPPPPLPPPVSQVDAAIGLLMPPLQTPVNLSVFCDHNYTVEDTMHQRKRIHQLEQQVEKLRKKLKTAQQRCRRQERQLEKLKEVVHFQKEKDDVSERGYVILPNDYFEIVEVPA
Text: as §1

[4] = target: T4, human THAP1 (THanatos-Associated-Protein-1), full length (human, UniProt Q9NVV9 1-213); experiment: yeast two-hybrid, both orientations
T4 construct: these tags are not written into the chain; also called hTHAP1; THAP1 wild type
T4 sequence: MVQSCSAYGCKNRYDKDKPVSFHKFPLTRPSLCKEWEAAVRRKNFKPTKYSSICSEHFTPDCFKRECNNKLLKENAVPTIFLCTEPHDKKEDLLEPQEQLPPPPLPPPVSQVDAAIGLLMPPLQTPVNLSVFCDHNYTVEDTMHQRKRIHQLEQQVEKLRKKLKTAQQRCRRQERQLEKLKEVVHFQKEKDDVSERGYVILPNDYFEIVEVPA
Description: To identify potential protein partners of THAP1, screening of the two-hybrid HEVEC cDNA library was performed using as a bait the human THAP1 full length cDNA inserted into the […] two-hybrid system 3 vector pGBKT7 (Clontech). Briefly, the full-length coding region of THAP1 was amplified by PCR from HEVEC cDNA with primers 2HMR10 (5′-[…]-3′) (SEQ ID NO: 187) and 2HMR9 (5′-[…]-3′) (SEQ ID NO: 188), digested with EcoRI and BamHI, and cloned in frame downstream of the Gal4 Binding Domain (Gal4-BD) in pGBKT7 vector to generate pGBKT7-THAP1. pGBKT7-THAP1 was then cotransformed with the pGAD424-HEVEC cDNA library in yeast strain AH109 (Clontech). 1.5×10⁷ yeast transformants were screened and positive protein interactions were selected by His and Ade double auxotrophy according to manufacturer's instructions ([…] two-hybrid system 3, Clontech). The plates were incubated at 30° C. for 5 days. Plasmid DNA was extracted from these positive colonies and used to verify the specificity of the interaction by cotransformation in AH109 with pGBKT7-THAP1 or control baits pGBKT7, pGBKT7-lamin and pGBKT7-hevin. […] Positive interaction between THAP1 and Par4 was confirmed using full length Par4 bait (pGBKT-Par4) and prey (pGADT7-Par4). […]

Measured: binding result

B1: Par4 leucine zipper/death domain (Par4DD, amino acids 250-342) (other)
chain: GFPRYNRDANVSGTLVSSSTLEKKIEDLEKEVVTERQENLRLVRLMQDKEEMIGKLKEEIDLLNRDLDDIEDENEQLKQENKTLLKVVGQLTR
notes: Gal4 fusion in two-hybrid; also called myc-Par4DD
binds: [1] | [2] | [3] | [4]
